Assay results: paper PMC5727262, “Molecular mechanism of K65 acetylation-induced attenuation of Ubc9 and the NDSM interaction” (Scientific Reports, 2017)

Columns and labels:
Ubc9 (WT) = biological target: T1, Ubc9 (WT) (Homo sapiens, UniProt P63279); test: Multiple-turnover in vitro sumoylation kinetics with WT Ubc9; assay type: biochemical; conditions: Michaelis-Menten, SUMO-1 conjugation; for Km: 100 nM WT Ubc9, 10 μM SUMO-1, 150 nM E1, pH 7.5, SDS-PAGE/SYPRO-RUBY, triplicate; for kcat: 100 nM WT Ubc9, 10 μM SUMO-1, 150 nM E1, pH 7.5, triplicate
T1 construct: made in house; host or cells: E. coli (stated as BL21 (DE3) for the acetylated variant)
Experimental: (§1) Although the decreased Ubc9 binding to the NDSM substrates on K65 acetylation could explain the reduced levels of NDSM substrate sumoylation, we could not entirely exclude the possibility that K65 acetylation could also affect Ubc9 catalytic activity. To test this possibility, an enzyme kinetics study was performed using multiple-turnover in vitro sumoylation assays between WT or Ac-Ubc9K65 and GST fusion of SM derived from RanGAP1 (Fig. 3A and B), Elk1 (Fig. 3C and D), and CBP (Fig. 3E and F). […] In line with the ITC results, K65 acetylation increased the km values by 1.5–1.7 fold of the NDSM peptides, but not the RanGAP1 SM.
(§2) Figure 3 Effect of K65 acetylation on Ubc9 catalysis. (A) Summary of Michaelis–Menten kinetics applied to SUMO conjugation rates for GST-RanGAP1_481-587 (B and C), GST-Elk1_200-261 (D and E) and GST-CBP1000-1080 (F and G). Experiments performed in triplicate. TEXT PRINTED IN THE PICTURE: (A) RanGAP1: Km (μM): 24.8 ± 1.7 (Ubc9: WT); kcat (min^-1): 4.3 ± 0.1 (Ubc9: WT); Km (μM): 21.0 ± 4.4 (Ubc9: K65-Ac); kcat (min^-1): 4.1 ± 0.3 (Ubc9: K65-Ac) | (A) Elk1: Km (μM): 75.2 ± 5.9 (Ubc9: WT); kcat (min^-1): 3.7 ± 0.5 (Ubc9: WT); Km (μM): 110.7 ± 7.8 (Ubc9: K65-Ac); kcat (min^-1): 4.0 ± 0.2 (Ubc9: K65-Ac) | (A) CBP: Km (μM): 63.8 ± 7.9 (Ubc9: WT); kcat (min^-1): 3.8 ± 0.4 (Ubc9: WT); Km (μM): 111.0 ± 11.6 (Ubc9: K65-Ac); kcat (min^-1): 4.5 ± 0.4 (Ubc9: K65-Ac) | (A) Calpain2: Km (μM): N.D. (Ubc9: WT); kcat (min^-1): N.D. (Ubc9: WT); Km (μM): N.D. (Ubc9: K65-Ac); kcat (min^-1): N.D. (Ubc9: K65-Ac)
(§3) The kinetic analysis[27] was performed in a 40 μl reaction mixture containing 10 μM SUMO-1, 150 nM E1, 100 nM WT or Ac-Ubc9K65, and known quantities of sumoylation substrate dissolved in a buffer containing 20 mM HEPES (pH 7.5), 100 mM NaCl, 5 mM MgCl2, and 2 mM ATP. The samples were subject to SDS-PAGE and visualized by SYPRO-RUBY staining using the UVP Gel-Doc-It system to quantify the sumoylated and non-sumoylated protein bands. Data from triplicate experiments were plotted as a graph of reaction velocity against concentration of the substrate to obtain the Michaelis–Menten constant (km) and the turnover number (kcat).

Ac-Ubc9K65 = biological target: T2, Ac-Ubc9K65 (Homo sapiens, UniProt P63279); test: Multiple-turnover in vitro sumoylation kinetics with Ac-Ubc9K65; assay type: biochemical; conditions: Michaelis-Menten, SUMO-1 conjugation; for Km: 100 nM Ac-Ubc9K65, 10 μM SUMO-1, 150 nM E1, pH 7.5, SDS-PAGE/SYPRO-RUBY, triplicate; for kcat: 100 nM Ac-Ubc9K65, 10 μM SUMO-1, 150 nM E1, pH 7.5, triplicate
T2 construct: made in house; host or cells: E. coli BL21 (DE3) with pAcKRS-3 and pCDF PylT-1-Ubc9 (amber codon at K65), fed acetyl-lysine
Experimental: as §1, §2, §3

T2 sequence (P63279 2-158): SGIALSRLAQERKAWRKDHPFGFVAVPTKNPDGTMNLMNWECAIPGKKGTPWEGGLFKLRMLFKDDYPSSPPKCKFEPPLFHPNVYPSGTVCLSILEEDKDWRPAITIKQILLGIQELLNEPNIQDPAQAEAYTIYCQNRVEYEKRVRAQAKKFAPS
T1 sequence (P63279 whole entry): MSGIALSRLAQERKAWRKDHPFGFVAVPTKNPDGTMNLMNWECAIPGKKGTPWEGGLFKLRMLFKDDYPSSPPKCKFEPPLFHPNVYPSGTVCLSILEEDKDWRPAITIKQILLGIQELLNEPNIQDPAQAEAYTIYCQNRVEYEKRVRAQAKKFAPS

B1: GST-CBP1000-1080: GST fusion of the sumoylation motif region derived from CBP, sumoylation substrate (protein)
chain: ETQAEDTEPDPGESKGEPRSEMMEEDLQGASQVKEETDIAEQKSEPMEVDEKKPEVKVEVKEEEESSSNGTASQSTSPSQP
modifications: left off: GST, end not stated, kept
notes: GST fusion of the sumoylation motif region derived from CBP, sumoylation substrate
Which results are given for B1?
Km (Ubc9 (WT)): 63.8 ± 7.9 µM; kcat (Ubc9 (WT)): 0.0633 ± 0.0067 s⁻¹; Km (Ac-Ubc9K65): 111 ± 11.6 µM; kcat (Ac-Ubc9K65): 0.075 ± 0.0067 s⁻¹

B2: GST-RanGAP1_481-587: GST fusion of the sumoylation motif region derived from RanGAP1, sumoylation substrate (protein)
chain: KDEATVRMAVQDAVDALMQKAFNSSSFNSNTFLTRLLVHMGLLKSEDKVKAIANLYGPLMALNHMVQQDYFPKALAPLLLAFVTKPNSALESCSFARHSLLQTLYKV
modifications: left off: GST, end not stated, kept
notes: GST fusion of the sumoylation motif region derived from RanGAP1, sumoylation substrate
What does the source list for B2?
Km (Ubc9 (WT)): 24.8 ± 1.7 µM; kcat (Ubc9 (WT)): 0.0717 ± 0.0017 s⁻¹; Km (Ac-Ubc9K65): 21 ± 4.4 µM; kcat (Ac-Ubc9K65): 0.0683 ± 0.005 s⁻¹

B3: GST-Elk1_200-261: GST fusion of the sumoylation motif region derived from Elk1, sumoylation substrate (protein)
chain: SPSPLEACLEAEEAGLPLQVILTPPEAPNLKSEELNVEPGLGRALPPEVKVEGPKEELEVAG
modifications: also: GST fusion partner not in chain
notes: GST fusion of the sumoylation motif region derived from Elk1, sumoylation substrate
B3 was tested. Which Km (Ubc9 (WT)) did it give?
Its Km is 75.2 ± 5.9 µM.

And the kcat (Ubc9 (WT))?
The kcat was 0.0617 ± 0.0083 s⁻¹.

And the Km (Ac-Ubc9K65)?
The Km was 111 ± 7.8 µM.

What about the kcat (Ac-Ubc9K65) of the same molecule?
The kcat was 0.0667 ± 0.0033 s⁻¹.
